Reference: patent US20250361274A1, “PEPTIDE AND PEPTIDE-CONTAINING AGENT” (PEPTIDREAM INC., priority 2022, published 2025)
Numbered stars: 1 amine (or outer) side, 2 acyl side, 3 side chain; on linkers, the order of the positions; unused ones are H or OH. Bridge positions count the residues as written; N and C are the ends. Square brackets hold non-standard residues; d marks the D form. Ends that are not written are not given here. KCOpipzaa = N6-(4-(carboxymethyl)piperazine-1-carbonyl)-L-lysine, O=C(NCCCC[C@H](N[*:1])C(=O)[*:2])N1CCN(CC(=O)[*:3])CC1; Bph3C = (S)-2-amino-3-(3'-chloro-[1,1'-biphenyl]-4-yl)propanoic acid, O=C([C@H](Cc1ccc(-c2cccc(Cl)c2)cc1)N[*:1])[*:2]; Cha4tH = (S)-2-amino-3-((1r,4S)-4-hydroxycyclohexyl)propanoic acid, O=C([C@H](C[C@H]1CC[C@H](O[*:3])CC1)N[*:1])[*:2]; 3Pal(6-Ph) = N[C@@H](Cc1ccc(-c2ccccc2)nc1)C(=O)O; Phe(4-COOH) = N[C@@H](Cc1ccc(C(=O)O)cc1)C(=O)O; NMePhe(4-Me) = CN[C@@H](Cc1ccc(C)cc1)C(=O)O; Bip = N[C@@H](Cc1ccc(-c2ccccc2)cc1)C(=O)O; Phe(4-F) = N[C@@H](Cc1ccc(F)cc1)C(=O)O; Ala(4-THP) = N[C@@H](CC1CCOCC1)C(=O)O; Hyp = O=C(O)[C@@H]1C[C@@H](O)CN1; NMeF = CN[C@@H](Cc1ccccc1)C(=O)O; 3Pal = N[C@@H](Cc1cccnc1)C(=O)O; Cha = N[C@@H](CC1CCCCC1)C(=O)O; Cba = N[C@@H](CC1CCC1)C(=O)O; Abu = CC[C@H](N)C(=O)O

How the values were obtained:
[1] = target: T1, BMP4 (Homo sapiens, UniProt P12644); experiment: BMP4 signal transduction inhibitory activity: SMAD1 phosphorylation by BMP4 stimulus, AlphaLISA SureFire, A549 cells; assay type: cell-based; conditions: for aLIZA BMP4 (0.2 nM) % inh: Table 6; for aLISA BMP4: A549 cells, peptides of Synthesis 2
T1 sequence (P12644 293-408): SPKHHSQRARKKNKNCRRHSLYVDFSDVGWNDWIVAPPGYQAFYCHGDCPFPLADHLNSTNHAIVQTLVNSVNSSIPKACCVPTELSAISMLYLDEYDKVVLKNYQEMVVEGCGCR
Description: In the present Example, a BMP4 signal transduction inhibitory activity of each peptide consisting of an amino acid sequence set forth in any of SEQ ID NOs: 5 to 240 and 243 to 421 synthesized in Example 10 was verified by phosphorylation of SMAD1 caused by BMP4 stimulus. A549 cells were cultured in MEM (Thermo Fisher Scientific) containing 10% FBS (Thermo Fisher Scientific), 1×Non-essential amino acids (Thermo Fisher Scientific), and 50 μg/mL Gentamicin. After TrypLE (Gibco) was used to peel the cells, seeding was performed in a 96-well plate for adhesion cells so that the number of cells would be 20,000 per well, followed by culturing for 48 hours. After the cells were cultured as described above, the culture medium was replaced with a peptide solution or recombinant Human Noggin Protein (R&D) solution as a positive control diluted to various concentrations in a nutrition-starved culture medium containing 0.1% BSA (Sigma) instead of FBS Thirty minutes after culturing, […], to stimulate it for 60 minutes. The culture medium was removed and the cells were lysed with Lysis Buffer provided with AlphaLISA (registered trademark) SureFire (registered trademark) Ultra SMAD1 (p-[…]/465) Assay kit (PerkinElmer). According to the protocol of the kit, a signal was detected using SpectraMax (registered trademark) Paradigm (registered trademark) multimode microplate reader (Molecular Devices). The obtained signal was analysed using GraphPad Prism (GraphPad Software). The % inhibition was calculated by considering non-stimulation as 100% inhibition and BMP stimulation only as 0% inhibition. Regarding SEQ ID NOs: 5 to 187, the concentrations of the peptides synthesized in the same manner as in Example 2 (shown as 2 in the row of Synthesis) were 0.02 nM, 0.2 nM, and 2 nM, and the concentrations of the peptides synthesized in the same manner as in Example 1 (shown as 1 in the row of Synthesis) were 0.2 nM, 2 nM, and 20 nM. The evaluation results were based on the results of evaluation using the peptides synthesized in the same manner as in Example 2. […] Regarding SEQ ID NOs: 243 to 321, the test was performed at the concentrations described in Table 6. […] Regarding SEQ ID NOs: 322 to 421, the test was performed at the concentrations described in Table 7. […] The evaluation tests of the signal transduction inhibitory activities of SEQ ID NOs: 87, 177, and 181 are as follows. Specifically, the inhibitory activity of BMP4 was evaluated in the same manner as in Example 11 that used A549 cells. Eight concentrations of the peptides were used at a common ratio of 1/3 starting from 2 nM. The inhibitory activity of BMP7 was evaluated in the same manner as in Example 12. Eight concentrations of the peptides were used at a common ratio of 1/3 starting from 100 nM. Note that recombinant Human Noggin Protein (R&D) as a positive control was used at the same concentration as that of the peptide. […] The inhibitory activity of BMP7 was evaluated using eight concentrations of the peptides at a common ratio of 1/3 starting from 1,000 nM in the same manner as in Example 12.

[2] = target: T2, BMP7 (Homo sapiens, UniProt P18075); experiment: BMP7 signal transduction inhibitory activity: SMAD1 phosphorylation by BMP7 stimulus, A549 cells; assay type: cell-based; conditions: for aLIZA BMP7 (10 nM) % inh: peptide 10, 100, 1000 nM, Table 6; for aLISA BMP7: A549 cells, peptides of Synthesis 2
T2 sequence (P18075 293-431): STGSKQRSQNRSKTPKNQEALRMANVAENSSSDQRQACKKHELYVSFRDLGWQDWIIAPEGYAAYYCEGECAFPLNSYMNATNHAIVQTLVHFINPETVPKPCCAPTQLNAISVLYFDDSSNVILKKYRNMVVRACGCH
Description: In the present Example, BMP7 signal transduction inhibitory activity of each peptide consisting of an amino acid sequence set forth in any of SEQ ID NOs: 5 to 240 and 243 to 421 synthesized in Example 10 was verified by phosphorylation of SMAD1 caused by BMP7 stimulus. The evaluation was performed using 10 nM of BMP7 instead of BMP 4. Regarding SEQ ID NOs: 5 to 240, the concentrations of the peptides synthesized in the same manner as in Example 2 (shown as 2 in the row of Synthesis) were 1 nM, 10 nM, and 100 nM, and the concentrations of the peptides synthesized in the same manner as in Example 1 (shown as 1 in the row of Synthesis) were 10 nM, 100 nM, and 1,000 nM, similarly with Example 11. […] Regarding SEQ ID NOs: 243 to 273 and SEQ ID NOs: 299 to 321, the test was performed at the concentrations (10, 100, 1,000 nM) described in Table 6. […] Regarding SEQ ID NOs: 274 to 298, the test was performed at the concentrations (100, 300, 1,000 nM) described in Table 6. […] Regarding SEQ ID NOs: 322 to 370 and SEQ ID NOs: 393 to 421, the test was performed at the concentrations (1, 10, 100 nM). […] Regarding SEQ ID NOs: 371 to 391, the test was performed at the concentrations (10, 30, 90 nM). […] The evaluation tests of the signal transduction inhibitory activities of SEQ ID NOs: 87, 177, and 181 are as follows. Specifically, the inhibitory activity of BMP4 was evaluated in the same manner as in Example 11 that used A549 cells. Eight concentrations of the peptides were used at a common ratio of 1/3 starting from 2 nM. The inhibitory activity of BMP7 was evaluated in the same manner as in Example 12. Eight concentrations of the peptides were used at a common ratio of 1/3 starting from 100 nM. Note that recombinant Human Noggin Protein (R&D) as a positive control was used at the same concentration as that of the peptide. […] The inhibitory activity of BMP7 was evaluated using eight concentrations of the peptides at a common ratio of 1/3 starting from 1,000 nM in the same manner as in Example 12.

[3] = BMP4 0.2 nM stimulus, peptide conc. in assay 0.2, 2, 20 nM
[4] = BMP7 10 nM stimulus, peptide conc. in assay 1, 10, 100 nM
[5] = BMP4 0.2 nM, peptide 0.02, 0.2, 2 nM
[6] = SMAD1 phosphorylation, BMP4 0.2 nM, peptide conc. in assay 0.2, 2, 20 nM
[7] = SMAD1 phosphorylation, BMP7 10 nM, peptide conc. in assay 1, 10, 100 nM

395 ([Phe(4-F)]G[NMePhe(4-Me)]G[Bip]GDD[Cha]A[NMeF]LHCG-NH2; not fully specified) [compound 395]
aLISA BMP4 (0.2 nM) % inh [1, 3]: A (showed less than 30% of inhibitory activity in 2 nM-peptide-addition zone and showed 30% or more of inhibitory activity in 20 nM-addition zone)
aLISA BMP7 (10 nM) % inh [2, 4]: D (showed less than 30% of inhibitory activity in 10 nM-addition zone and showed 30% or more of inhibitory activity in 100 nM-addition zone)

319 (ERV[Phe(4-COOH)][Cha4tH][KCOpipzaa]R[3Pal(6-Ph)][KCOpipzaa]Y[Hyp][Bph3C]Y[Phe(4-COOH)][Phe(4-COOH)]SCG-NH2; not fully specified) [compound 319]
aLIZA BMP4 (0.2 nM) % inh [1, 5]: B (showed less than 30% of inhibitory activity in 0.02 nM-addition zone and showed 30% or more of inhibitory activity in 0.2 nM-addition zone)
aLIZA BMP7 (10 nM) % inh ([2]; BMP7 10 nM): D (showed less than 30% of inhibitory activity in a zone to which the peptide was added in an amount of 10 nM and showed 30% or more of inhibitory activity in 100 nM-addition zone)

117 (EKVYVKRFPYPFYFFSCAE; not fully specified; MOD_RES 2 K represents N6-(4-(Carboxymethyl) piperazine-1-carbonyl)-L-lysine(KCOpipzaa); MOD_RES 6 K represents N6-(4-(Carboxymethyl) piperazine-1-carbonyl)-L-lysine(KCOpipzaa); MOD_RES 8 F represents (S)-3-(1,1'-Biphenyl-4-yl)-2-aminopropanoic acid(Bph); MOD_RES 12 F represents (S)-3-(1,1'-Biphenyl-4-yl)-2-aminopropanoic acid(Bph); MOD_RES 14 F represents (S)-4-(2-amino-2-carboxyethyl)benzoic aci) [compound 117]
aLISA BMP4 ([1]; inhibition of SMAD1 phosphorylation by BMP4 stimulus, classes A-C, ND): C (showed an inhibitory activity of less than 50% in 0.2 nM-addition zone and showed an inhibitory activity of 50% or more in 2 nM-addition zone were defined as B or C)
aLISA BMP7 ([2]; inhibition of SMAD1 phosphorylation by BMP7 stimulus, classes A-D, ND): C (showed less than 50% of inhibitory activity in 10 nM-addition zone and showed 50% or more of inhibitory activity in 100 nM-addition zone)

306 (ERV[Phe(4-COOH)][Cba][KCOpipzaa]R[3Pal(6-Ph)][KCOpipzaa]Y[Hyp][Bip]Y[Phe(4-COOH)][Phe(4-COOH)]SCG-NH2; not fully specified) [compound 306]
aLIZA BMP4 (0.2 nM) % inh [1, 5]: C (showed less than 30% of inhibitory activity in 0.2 nM-addition zone and showed 30% or more of inhibitory activity in 2 nM-addition zone)
aLIZA BMP7 (10 nM) % inh ([2]; BMP7 10 nM): E (showed less than 30% of inhibitory activity in 100 nM-addition zone and showed 30% or more of inhibitory activity in 1,000 nM-addition zone)

376 (FG[NMeF]G[3Pal]GDD[Cha]A[NMeF]LHCG-NH2; not fully specified) [compound 376]
aLISA BMP4 (0.2 nM) % inh ([1]; BMP4 0.2 nM stimulus, peptide conc. in assay 2, 20, 200 nM): ND (the inhibitory activity was less than 30% at the maximum concentration evaluated)
aLISA BMP7 (10 nM) % inh ([2]; BMP7 10 nM stimulus, peptide conc. in assay 10, 30, 90 nM): G (showed less than 30% of inhibitory activity in 30 nM-addition zone and showed 30% or more of inhibitory activity in 90 nM-addition zone)

310 (ERV[Phe(4-COOH)][Ala(4-THP)][KCOpipzaa]R[3Pal(6-Ph)][KCOpipzaa]Y[Hyp][Bip]Y[Phe(4-COOH)][Phe(4-COOH)]SCG-NH2; not fully specified (N-terminus, bridges); also: cyclic peptide, ring closure not given here) [compound 310]
aLIZA BMP4 (0.2 nM) % inh [1, 5]: C (showed less than 30% of inhibitory activity in 0.2 nM-addition zone and showed 30% or more of inhibitory activity in 2 nM-addition zone)
aLIZA BMP7 (10 nM) % inh ([2]; BMP7 10 nM): E (showed less than 30% of inhibitory activity in 100 nM-addition zone and showed 30% or more of inhibitory activity in 1,000 nM-addition zone)

404 (FG[NMeF]G[Bip]GDE[Cha]Q[NMeF]L[Phe(4-COOH)]C-NH2; not fully specified) [compound 404]
aLISA BMP4 (0.2 nM) % inh [1, 3]: ND (the inhibitory activity was less than 30% at the maximum concentration evaluated)
aLISA BMP7 (10 nM) % inh [2, 4]: C (showed less than 30% of inhibitory activity in a zone to which the peptide was added in an amount of 1 nM and showed 30% or more of inhibitory activity in 10 nM-addition zone)

354 (FG[NMeF]G[Bip]GDD[Cha]A[NMeF]LNCG-NH2; not fully specified (N-terminus, bridges)) [compound 354]
aLISA BMP4 (0.2 nM) % inh [1, 6]: ND (the inhibitory activity was less than 30% at the maximum concentration evaluated)
aLISA BMP7 (10 nM) % inh [2, 7]: D (showed less than 30% of inhibitory activity in 10 nM-addition zone and showed 30% or more of inhibitory activity in 100 nM-addition zone)

35 ({CH2CO}-AKVYVDK[Bip]PYP[Bip]Y[Phe(4-COOH)][Phe(4-COOH)]SCG-NH2; thioether N-17; not fully specified) [compound 35]
aLISA BMP4 ([1]; SMAD1 phosphorylation, peptide 0.02, 0.2, 2 nM): A (showed an inhibitory activity of 50% or more in a zone to which the peptide was added to in an amount of 0.2 nM)
aLISA BMP7 ([2]; 10 nM BMP7, peptide 1, 10, 100 nM): ND (the inhibitory activity was less than 30% at the maximum concentration evaluated)

359 (FG[NMeF]G[Bip]GDE[Cha]A[NMeF]L[Abu]CG-NH2; not fully specified (N-terminus, bridges)) [compound 359]
aLISA BMP4 (0.2 nM) % inh [1, 6]: ND (the inhibitory activity was less than 30% at the maximum concentration evaluated)
aLISA BMP7 (10 nM) % inh [2, 7]: D (showed less than 30% of inhibitory activity in 10 nM-addition zone and showed 30% or more of inhibitory activity in 100 nM-addition zone)
